The text below walks through data of the RNAGym collection of RNA variant scans (doi:10.7554/elife.90254).

The chains are these.
B1: LINE1-full (parent)
chain: UACGUAGGUGGUUUUCCCCUGAUAGUGCUAAGGGGGCCUGGAAGUUUGGACUGGGCAGAGCUCAACACAGCGUGGCAAAGUGGCUGUGGCUAGACUGCCUCUCUGGAUUCCUCGUCACUCAGCAGGGCAUCUCUGAGAGAAAUGCC

In this data set the parent is B1. As to the kind of experiment: self-cleavage, relative activity (ratio to wild type); higher = more cleavage; in vitro, sequencing; the parent is a self-cleaving ribozyme.
On to C16U C131U, for which the self-cleavage was 1.8.
To C18A C123U belongs 1.31; to C19A U112C, 1.55; to C19A U112G, 0.85.
With C17G U115C, the self-cleavage is 0.84.
To U15A G135A belongs 0.87; to C18A U119C, 1.49; to U15A U45G, 0.73.
In the case of U15C C56U, the self-cleavage was 0.23.
In the case of U15C C56A it was 0.04; in that of U15A A136U, 0.35; in that of U15A A57G, 0.68.
To U15A C113U belongs 0.44; to U15C G83A, 0.72; to U15A U62C, 0.
In the case of U15A U119C it was 0.19.
For U15A G35U, the self-cleavage turned out to be 1.16.
To C19A U46C belongs 1.22.
For C16U A64G, the self-cleavage came out at 0.09.
In the case of C16U U112C it was 1.71; in that of C16U U87A, 0.05.
Consider U15C G33A, for which the self-cleavage amounted to 1.05.
In the case of C16U U62C it was 0.09; in that of C19A U52C, 0.51; in that of U15A U85C, 0.03.
As for C19A U100C, the self-cleavage was 0.9.
On to C19A U100A, for which the self-cleavage came to 0.51.
As for U15C G125A, the self-cleavage worked out at 0.87.
As for U15C G125U, the self-cleavage was 0.82.
In the case of C16U A124U, the self-cleavage amounted to 0.88.
C17U U23G: the self-cleavage was 1.11.
In the case of C17U U23C it was 0.68; in that of U15A U104C, 1.06; in that of C19A U39A, 2.04.
In the case of U15C G44A it was 1.41; in that of U15A A69U, 0.05; in that of U15A U52C, 0.9.
In the case of U15A U52G it was 1.23; in that of C16U G32A, 1; in that of C17U U26C, 0.6.
Take C17G A59U: the self-cleavage turned out to be 0.55.
For U15A G33A, the self-cleavage was found to be 0.98.
For the variant U15A G72A, the self-cleavage came to 0.92.
In the case of U15C U134A it was 1.04.
To C18U A22U belongs 0.9; to C17A, 1.27.
Turning to C17G, the self-cleavage came out at 0.91.
For C17U, the self-cleavage was 1.09.
In the case of U15C U39A it was 1.56; in that of U15C U39G, 1.6; in that of U15C A50C, 2.42.
Consider U15C A50G, for which the self-cleavage amounted to 1.11.
Consider C17U U29C, for which the self-cleavage worked out at 0.81.
To U14G U102G belongs 0.66; to C18U A124U, 1.27.
For U15C C120U, the self-cleavage turned out to be 1.72.
On to U15A G60U, for which the self-cleavage is 0.07.
Regarding U15C G137U, the self-cleavage came out at 1.26.
With C18U U81C, the self-cleavage was 0.84.
To C19A U62A belongs 0.05; to U15C U104A, 1.05.
As to U15C U104C, the self-cleavage came to 1.86.
Consider C18A G89A, for which the self-cleavage was 0.05.
To U15A C90A belongs 0.02.
Take C18A U62C: the self-cleavage was 0.11.
To U15A U132C belongs 0.98; to U15C A79U, 1.88; to C17U U112C, 1.49.
Turning to C17U U112A, the self-cleavage came to 0.9.
Turning to U15G A79G, the self-cleavage was determined as 0.
For C17U G72A, the self-cleavage turned out to be 1.05.
Turning to U15C C99U, the self-cleavage is 0.55.
To U15A A79G belongs 0; to U15A G80A, 1.16.
To C17A A42G belongs 1.13.
U15C A129G: the self-cleavage worked out at 1.54.
In the case of C17U A141G it was 0; in that of C19A U85A, 0.14.
In the case of U15C C95U it was 0.28; in that of C18U U104C, 0.23; in that of U15A A117G, 1.24.
Turning to U15C A117U, the self-cleavage worked out at 1.58.
On to C19A U109A, for which the self-cleavage worked out at 1.58.
For the variant C16U A141G, the self-cleavage came to 1.13.
For U15A U26C, the self-cleavage was 0.86.
In the case of U15A U91C, the self-cleavage was determined as 0.44.
U15A U100C: the self-cleavage was 0.91.
In the case of U15A G58A it was 0.09; in that of U15C G93U, 0.09; in that of U15G G44U, 0.96.
In the case of C19A A136U it was 0.59.
To C16U A129U belongs 1.36.
Turning to C16U A129G, the self-cleavage came to 1.25.
As for C17U U20G, the self-cleavage turned out to be 0.57.
To U15C U52C belongs 1.14.
To U15C U52A belongs 1.35; to C18U A117G, 1.72; to U15A A121G, 1.15.
To C18U A24G belongs 1.01; to U15C A107G, 1.14; to U15C U102C, 1.46.
For U15C C90U, the self-cleavage is 0.04.
To U15C U143G belongs 2.03; to U15C U143A, 1.55.
To C16A A121U belongs 1.97; to C18A A77U, 0.97; to C18U U143C, 1.11.
To U15C G36C belongs 1.31; to C17U C131A, 1.58.
As to U15C C76A, the self-cleavage is 1.2.
In the case of U15C U91A it was 0.81.
Turning to U15C U91C, the self-cleavage amounted to 0.77.
For U15A A77U, the self-cleavage came out at 0.98.
To U15A A77G belongs 0.89; to C17U U81A, 1.53.
In the case of U15C U108A it was 2.1.
As to U15C U108C, the self-cleavage is 1.99.
To C17U U96C belongs 0.1.
In the case of U15C G35A it was 1.41.
Turning to U15C G35U, the self-cleavage worked out at 1.55.
To C18U U73C belongs 1.53; to C18U U73A, 1.78; to U15A A107G, 0.81.
In the case of U15A A129G it was 0.65; in that of C16A A22U, 1.21; in that of C16A A117G, 1.01.
As to U15A U143A, the self-cleavage turned out to be 1.09.
As for U15C A94U, the self-cleavage worked out at 0.67.
In the case of C16U U132A it was 1.41; in that of C17A A79U, 0.87; in that of C17U A59U, 0.51.
As to C17U U104A, the self-cleavage came to 0.95.
To U15A A24G belongs 0.49; to U15A A24U, 1.12; to U15G G144A, 0.82.
With C17U A30G, the self-cleavage stood at 1.44.
In the case of U15C G127U it was 1.23; in that of U15C G127A, 1.05.
To U15C G74A belongs 1.4; to U15C C28U, 2.35; to U15A U112A, 1.53.
For U15A U112C, the self-cleavage was 1.51.
Take C16U A59U: the self-cleavage was 0.8.
In the case of C17U U52G it was 1.41; in that of U15C G32C, 1.16.
To U15C G32A belongs 0.93; to U15C C113U, 1.71.
For C16A A129U, the self-cleavage came to 1.15.
In the case of U15G G114A it was 0.87; in that of U15A U87G, 0.2; in that of U14G U96C, 0.
In the case of U15G C118U it was 0.97; in that of C17A G35A, 0.81.
As for U15C G49A, the self-cleavage was 1.21.
With U15C U85C, the self-cleavage was 0.34.
As for U15C A65U, the self-cleavage was found to be 0.2.
As for U15C C98U, the self-cleavage was 0.33.
To U15A U39G belongs 1.02; to U15C G75A, 1.28.
In the case of U15C, the self-cleavage was found to be 1.42.
Consider U15A, for which the self-cleavage came to 0.96.
For U15G, the self-cleavage was 1.06.
In the case of C19A A69G it was 0.42.
On to C18A U109A, for which the self-cleavage came to 1.71.
To C16U A79G belongs 0.9.
Take C16U A79U: the self-cleavage was 1.54.
For U15C U100C, the self-cleavage is 1.81.
